Measurements as given in patent US20260028422A1 (CONCEPT TO MEDICINE BIOTECH, published 2026).
Residue numbers refer to the chain shown, from its start.

T1: human MerTK expressed on cells (human, UniProt Q12866 21-999)
T1 construct: whole, on cells; also called CHO-K1-hMerTK; CHO-K1-MerTK
T1 sequence (looked up): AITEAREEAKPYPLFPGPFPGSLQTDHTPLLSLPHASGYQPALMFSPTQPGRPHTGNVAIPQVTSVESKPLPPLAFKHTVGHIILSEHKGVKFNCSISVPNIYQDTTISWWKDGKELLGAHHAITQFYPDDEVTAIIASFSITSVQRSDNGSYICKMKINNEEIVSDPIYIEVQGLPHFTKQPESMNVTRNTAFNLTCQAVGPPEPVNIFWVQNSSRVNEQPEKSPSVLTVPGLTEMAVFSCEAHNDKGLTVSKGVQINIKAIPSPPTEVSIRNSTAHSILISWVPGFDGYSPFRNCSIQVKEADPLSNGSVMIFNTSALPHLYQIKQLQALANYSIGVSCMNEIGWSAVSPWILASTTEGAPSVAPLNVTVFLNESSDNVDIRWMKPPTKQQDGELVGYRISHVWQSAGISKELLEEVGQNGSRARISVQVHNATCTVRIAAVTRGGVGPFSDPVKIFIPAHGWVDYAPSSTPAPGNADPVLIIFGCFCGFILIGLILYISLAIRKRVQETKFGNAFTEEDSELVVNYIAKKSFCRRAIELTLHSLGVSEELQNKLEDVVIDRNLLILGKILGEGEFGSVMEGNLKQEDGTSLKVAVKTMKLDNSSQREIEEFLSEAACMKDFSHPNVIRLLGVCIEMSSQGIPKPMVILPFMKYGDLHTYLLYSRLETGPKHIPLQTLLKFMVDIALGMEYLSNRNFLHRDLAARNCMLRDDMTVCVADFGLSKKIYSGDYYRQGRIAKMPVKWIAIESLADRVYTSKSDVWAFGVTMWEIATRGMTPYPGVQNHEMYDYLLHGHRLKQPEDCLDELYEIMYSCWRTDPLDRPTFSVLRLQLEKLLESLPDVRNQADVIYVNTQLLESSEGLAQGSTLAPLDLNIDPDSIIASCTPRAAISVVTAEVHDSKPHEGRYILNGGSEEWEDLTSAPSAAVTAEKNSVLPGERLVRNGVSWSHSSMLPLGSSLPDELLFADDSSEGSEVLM

T2: human MerTK-his protein (human, UniProt Q12866 21-505)
T2 construct: extracellular domain; also called hMerTK-His; human MerTK protein
T2 sequence (looked up): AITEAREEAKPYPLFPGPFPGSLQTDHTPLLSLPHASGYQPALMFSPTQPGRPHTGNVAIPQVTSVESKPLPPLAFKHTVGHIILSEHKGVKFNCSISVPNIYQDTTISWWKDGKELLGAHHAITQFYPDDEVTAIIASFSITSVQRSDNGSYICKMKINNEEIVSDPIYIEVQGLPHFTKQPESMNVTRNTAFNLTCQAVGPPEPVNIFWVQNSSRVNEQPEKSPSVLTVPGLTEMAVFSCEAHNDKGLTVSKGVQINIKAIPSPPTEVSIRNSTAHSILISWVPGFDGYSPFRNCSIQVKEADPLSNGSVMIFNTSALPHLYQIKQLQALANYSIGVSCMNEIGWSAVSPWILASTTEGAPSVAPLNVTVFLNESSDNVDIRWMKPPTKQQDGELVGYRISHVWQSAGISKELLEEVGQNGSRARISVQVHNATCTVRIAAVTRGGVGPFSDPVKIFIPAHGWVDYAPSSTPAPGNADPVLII

T3: Human MerTK-mouse Fc fusion protein (human, UniProt Q12866 21-499, limits assumed)
T3 construct: also called hMerTK; Human MerTK-mouse Fe fusion protein
T3 sequence (looked up): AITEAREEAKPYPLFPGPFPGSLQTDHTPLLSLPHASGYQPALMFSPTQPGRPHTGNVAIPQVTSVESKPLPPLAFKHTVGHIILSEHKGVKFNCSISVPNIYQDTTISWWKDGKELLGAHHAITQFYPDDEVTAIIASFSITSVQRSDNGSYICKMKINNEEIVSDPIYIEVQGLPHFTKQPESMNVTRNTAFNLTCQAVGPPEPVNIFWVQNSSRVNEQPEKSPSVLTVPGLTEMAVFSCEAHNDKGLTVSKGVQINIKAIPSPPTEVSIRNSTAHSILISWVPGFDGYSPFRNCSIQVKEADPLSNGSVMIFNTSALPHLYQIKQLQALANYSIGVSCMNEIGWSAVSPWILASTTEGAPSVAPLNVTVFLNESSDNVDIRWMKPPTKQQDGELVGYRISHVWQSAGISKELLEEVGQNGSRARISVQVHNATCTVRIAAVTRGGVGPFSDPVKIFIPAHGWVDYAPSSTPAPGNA

B1: 247E5A8 chimeric monoclonal antibody (antibody, V domains shown)
VH: DVQLQESGPGLVKPSQSLSLTCSVTGYSITGGYYWTWIRQFPGNKLEWMGYISYDGDNNYNPSLKNRISITRDTSKNQFFLNLNSVTTEDTATYYCAREGGRLRTMDYWGQGTSVTVSS
VL: QIVLTQSPAIMSASPGEKVTITCRASSSVNYMHWFQQKPGTSPKLWIYTTSNLASGVPARFSGSGSGTSYSLTISRMEAEDAATYYCQQRSSYPFTFGSGTKLEIK
B2: 10F7D9 chimeric monoclonal antibody (antibody, V domains shown)
VH: QIQLVQSGPELKKPGETVKISCKASGYTFTNYGMNWVKQAPGKGLKWMGWINTYTGEPTYADDFKGRFAFSLETSASTAYLQINNLKNEDLATYFCATYGHYAWFAYWGQGTLVTVSA
VL: QIVLSQSPAILSASPGEKVTMTCRASSSVSYMHWYQQKSGSSPKPWIYATSNLASGVPARFSGSGSGTSYSLTISRVEAEDAATYFCQQWGTKPLTFGAGTKLELK
B3: 85H8D5 chimeric monoclonal antibody (antibody, V domains shown)
VH: QIQLVQSGPELKKPGETVKISCMASGYTFTTHGVTWVKQAPGQGLQRMGWINTYSGVPTYADDFKGRFVFSLETSANTAHLQINNLKNEDTATYFCARTNNYRYFDVWGTGTTVTVSS
VL: B2 VL with A13S, S39P, S71F, F86Y, G91N, K93D, L95P, A99G, L105I
B4: 216G3D6 chimeric monoclonal antibody (antibody, V domains shown)
VH: QVTLKESGPGILQPSQTLSLTCSFSGFSLSTSGMGVGWIRQPSGKGLEWLAHIWWDDDKHCNPALKSRLTISKDTSSNQVFLKIASLDTADTATYYCTQMTMTREFAYWGQGTLVTVSA
VL: DIQMTQTISSLSASLGDRVTISCSAGQGISNYLNWYQQKPDGTVKLLIYYTSRLHSGVPSRFSGSGSGTDFSLTISNLEPEDIATYFCQQYSKFPYTFGGGTKLEIK
B5: 252C12B10 chimeric monoclonal antibody (antibody, V domains shown)
VH: QVQLQQPGTELVKPGASVKLSCKTSGYTFTSYWMHWMKQRPGQGLEWLGHINPSTGGSNYNEKFKSKATLTVDKSSNTAYMQLSSLTSEDSAVYYCARPRGFYGYSYWYFDVWGSGTTVTVSS
VL: DIQMTQTTSSLSASLGDRVTISCSASQDINNYLNWYQHKPDGTIKVLIYFTSSLHSGVPSRFSGSGSGTEYSLTISNLEPEDIATYYCQQYSKLPPTFGSGTKLEIK
B6: 254B4D9 chimeric monoclonal antibody (antibody, V domains shown)
VH: QIQLVQSGPELKKPGETVKISCKASGYTFTAYGMSWVKQAPGKGLQWMGWINTYSGVPTYTDDFKGRFAFSLEASASTAFLQINNLKNEDTSTYFCARRAAVVAKYWYFDVWGTGTTVTVSS
VL: DIQMTQSPSSLFASLGGKVIITCKSSQDINKRISWYQHKPGKGPRLLIHSTSSLQPGIPLRFSGSGSGRDYSFSISNLEPEDIATYFCLQYDNLLTFGAGTKLELK
B7: 276C2D1 chimeric monoclonal antibody (antibody, V domains shown)
VH: QVQLQQSGPELVKPGASVKLSCKASGYTFTSYDINWVKQRPGLGLEWIGWIYPRDGYTKYNEKFKGKATLAVDTSSSTAYMELHSLTSEDSAVYFCARGYYSNLYYFDYWGQGTTLTVSS
VL: EVVLTQSPPTMAASPGEKITITCSASSSISSNYLHWYQQKPGFSPKLLIYRTSNLASGVPARFSGSGSGTSYSLTIGTMEAEDVATYYCQQGRSIPLTFGAGTKLELK
B8: 280C6A3 chimeric monoclonal antibody (antibody, V domains shown)
VH: B7 VH with T28S, S31T, L43Q, Y57S, A71T, V72L, S77N, E82G, S102D
VL: B7 VL with V2I, P9T, I29V, S94I, I95V
B9: 300A5A3 chimeric monoclonal antibody (antibody, V domains shown)
VH: B7 VH with S31T, Y80S, S102D, Y109N, Q112P
VL: B7 VL with V2N, P9T, M11V, S28I, V84A, I95V
B10: 265F11B5 chimeric monoclonal antibody (antibody, V domains shown)
VH: B7 VH with K19R, S31T, K67R, A97T, S102D
VL: B7 VL with V2I, P9T, M11V, S28I, L34F, K40R, I95V
B11: 293C2B7 chimeric monoclonal antibody (antibody, V domains shown)
VH: B7 VH with L43Q, N61K, A71T, Y100F
VL: B7 VL with V2I, P9T, A13T, A61D

Target: T1, human MerTK expressed on cells
Test: FACS on CHO-K1 cells overexpressing human MerTK, MFI (PE)
Procedure: To evaluate the binding property to the antigen expressed on the cells, the chimeric monoclonal antibodies were analyzed for their binding to human MerTK overexpressed on CHO-K1 cells by FACS. Briefly, human MerTK overexpressing CHO-K1 (CHO-K1-MerTK) cells were firstly incubated with 5-fold serially diluted mAbs starting at 20 nM at 4° C. for 1 hour. After washing with FACS buffer, the PE conjugated anti-human IgG-Fc secondary antibody was added to each well and incubated at 4° C., for 30 mins. The mean fluorescence intensity (MFI) of PE were evaluated by QuantAnalyzer 16.

Row | EC50 | Top | Binder
1 | 120 pM | 10800 MFI (PE) | B1
2 | 40 pM | 10800 MFI (PE) | B2
3 | 54 pM | 10500 MFI (PE) | B3
4 | 170 pM | 11000 MFI (PE) | B4
5 | 63 pM | 6040 MFI (PE) | B5

Target: T2, human MerTK-his protein
Test: SPR Biacore T200, antibody captured on Protein A chip
Procedure: The binding affinity of the MerTK chimeric antibodies to human MerTK-his protein was tested with Biacroe™ T200 using a capture method. Briefly, the antibodies were captured with a Pro-A chip. […] The antigen was allowed to dissociate for 420-800 s. Data analysis was carried out using Biacore™ T200 evaluation software.

Row | Kd | koff | kon | Binder
6 | 4590 pM | 0.000596 s⁻¹ | 130000 M⁻¹ s⁻¹ | B1
7 | 4300 pM | 0.00238 s⁻¹ | 554000 M⁻¹ s⁻¹ | B2
8 | 11400 pM | 0.00664 s⁻¹ | 582000 M⁻¹ s⁻¹ | B3
9 | 852 pM | 8.97e-05 s⁻¹ | 105000 M⁻¹ s⁻¹ | B4
10 | 11900 pM | 0.000782 s⁻¹ | 65500 M⁻¹ s⁻¹ | B6
11 | 12700 pM | 0.00223 s⁻¹ | 175000 M⁻¹ s⁻¹ | B7
12 | 3080 pM | 0.000553 s⁻¹ | 179000 M⁻¹ s⁻¹ | B8
13 | 1360 pM | 0.00029 s⁻¹ | 214000 M⁻¹ s⁻¹ | B9
14 | 1220 pM | 0.000232 s⁻¹ | 191000 M⁻¹ s⁻¹ | B10
15 | 5330 pM | 0.00103 s⁻¹ | 193000 M⁻¹ s⁻¹ | B5

Target: T3, Human MerTK-mouse Fc fusion protein
Test: FACS blocking: binding of human MerTK-mouse Fc to Jurkat cells overexpressing human Gas6, MFI (AF488)
Procedure: (§1) To evaluate the blocking effects of anti-hMerTK mAbs on hMerTK binding to its ligand hGas6, a receptor blocking assay was set-up. Briefly, Jurkat cells engineered to overexpress human Gas6 were added to the 96-well microplates at a density of 5×10⁴ cells per well. Human MerTK-mouse Fe fusion protein (50 μL/well, […]) and the MerTK chimeric antibodies with a 3-fold serial dilution starting from 120 nM at a volume of 50 μL were added to the 96-well plates and incubated at 4° C. for 30 mins. After washing with FACS buffer, the plates were incubated with diluted Alex Fluor 488 conjugated goat anti-mouse IgG antibody for 30 mins at 4′C. After washing, the plates were analyzed by QuantAnalyzer 16.

Row | IC50 | Binder
16 | ~773 pM | B6
17 | 813 pM | B7
18 | 701 pM | B8
19 | 779 pM | B11
20 | 867 pM | B9
21 | 798 pM | B10

Target: T3, Human MerTK-mouse Fc fusion protein
Test: as above
Remark: another data set of the same source
Procedure: as §1

Row | IC50 | Binder
22 | 787 pM | B1
23 | 696 pM | B2
24 | 802 pM | B3
25 | 802 pM | B4
26 | 780 pM | B5
